Data reported in publication PMC5871780, “Klf4 glutamylation is required for cell reprogramming and early embryonic development in mice”.

What was measured:
[1] = biological target: GST-Klf4-wt (Mus musculus, UniProt Q60793 1-483); experiment: EMSA; unlabeled probe (1x or 100x) competes; LightShift Chemiluminescent EMSA Kit (Thermo Scientific), per manufacturer; buffer, salt, pH and temperature not stated; details: protein: recombinant; tags: GST (N-term, pGEX-6P-1); blunt
[2] = biological target: GST-Klf4-E381A (Mus musculus, UniProt Q60793 1-483, E381A); experiment: EMSA; affinity comparable to wt; LightShift Chemiluminescent EMSA Kit (Thermo Scientific), per manufacturer; buffer, salt, pH and temperature not stated; details: protein: recombinant; tags: GST (N-term, pGEX-6P-1); blunt
Sequence of GST-Klf4-E381A (Q60793 whole entry E381A): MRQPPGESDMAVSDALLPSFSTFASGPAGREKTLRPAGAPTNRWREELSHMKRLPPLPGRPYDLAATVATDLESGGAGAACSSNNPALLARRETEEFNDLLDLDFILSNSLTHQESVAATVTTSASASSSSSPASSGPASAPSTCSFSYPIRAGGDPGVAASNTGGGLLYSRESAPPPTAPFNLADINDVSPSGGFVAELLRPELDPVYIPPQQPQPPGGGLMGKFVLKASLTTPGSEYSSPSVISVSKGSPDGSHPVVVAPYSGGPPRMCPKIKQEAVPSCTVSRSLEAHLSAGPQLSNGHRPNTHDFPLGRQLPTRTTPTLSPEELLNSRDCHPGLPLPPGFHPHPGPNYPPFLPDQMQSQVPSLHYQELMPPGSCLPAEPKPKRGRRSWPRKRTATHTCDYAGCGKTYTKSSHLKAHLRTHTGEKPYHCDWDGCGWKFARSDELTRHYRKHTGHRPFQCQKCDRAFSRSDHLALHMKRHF

Sequence of GST-Klf4-wt (Q60793 whole entry): as the sequence (Q60793 whole entry E381A) above, with A381E counted along it

B1: Nanog promoter probe (dsDNA)
DNA 1: GCCGCCTGGGTGCCTGGGAGAATAGGGGGTGGGTAGGGTAGGAGGCTTG
DNA 2: CAAGCCTCCTACCCTACCCACCCCCTATTCTCCCAGGCACCCAGGCGGC
Q: Does B1 bind [1]?
A: binds

Q: Does B1 bind [2]?
A: binds
